Experimental findings from patent publication US20150266962A1 (Pfizer, published 2015) are described below.

The IC50 is the concentration that inhibits the measured activity by half. By EC50 is commonly meant the midpoint of the concentration-response curve.

Assay [1] deals with T1, recombinant human IL-13 receptor alpha 2 (hIL-13-Rα2) (human, UniProt Q14627 27-343).
T1 construct: Recombinant soluble antigen coated on ELISA plates or used in Biacore; also called rec hIL-13Rα2; rhIL-13Rα2
T1 sequence (looked up): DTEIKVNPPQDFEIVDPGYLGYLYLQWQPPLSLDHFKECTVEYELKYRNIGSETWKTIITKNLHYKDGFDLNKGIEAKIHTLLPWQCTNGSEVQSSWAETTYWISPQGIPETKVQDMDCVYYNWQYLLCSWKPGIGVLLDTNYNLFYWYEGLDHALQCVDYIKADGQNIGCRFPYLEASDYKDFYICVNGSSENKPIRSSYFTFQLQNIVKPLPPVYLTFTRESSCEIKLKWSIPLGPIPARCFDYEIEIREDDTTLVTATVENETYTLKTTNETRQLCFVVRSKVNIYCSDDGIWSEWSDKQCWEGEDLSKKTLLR
The assay is described as follows: competition ELISA on coated recombinant hIL-13-Rα2, competitor biotin-ch08. As for the experimental part: A competition ELISA was performed to assess whether hu08 1.0 and hu08 v1.1 compete with ch08 for IL-13-Rα2 binding. Recombinant hIL-13-Rα2 was coated onto 96-well plates at 50 ul of […] in PBS overnight at 4° C. Plates were then blocked and washed following standard ELISA protocol. A 3-fold serially diluted ch08, hu08 1.0 and hu08 v1.1, and negative control ch07 (2× final concentration) were mixed with biotinylated ch08 (2×EC₅₀). 50 μl of the antibody and biotin-ch08 mixture were added to the plate and incubated for 1 hour at room temperature. The amount of biotin-ch08 bound was detected by HRP conjugated streptavidin.
A general note: In an ELISA, binding on a coated surface is turned into a signal by an enzyme label.

The target of assay [2] is T2, recombinant mouse IL-13-Rα2 (mIL-13-Rα2) (mouse, UniProt O88786 22-334, limits assumed).
T2 construct: also called murine mIL-13Rα2
T2 sequence (looked up): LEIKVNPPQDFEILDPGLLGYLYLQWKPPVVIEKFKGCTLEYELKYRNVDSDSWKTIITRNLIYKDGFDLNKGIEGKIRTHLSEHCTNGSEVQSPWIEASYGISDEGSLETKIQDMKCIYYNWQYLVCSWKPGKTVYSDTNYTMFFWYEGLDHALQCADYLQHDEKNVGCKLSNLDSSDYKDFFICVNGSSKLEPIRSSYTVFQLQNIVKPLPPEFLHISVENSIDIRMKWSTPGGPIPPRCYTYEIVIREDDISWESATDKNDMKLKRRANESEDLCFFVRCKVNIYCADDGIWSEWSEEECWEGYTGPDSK
The experiment in a line: direct ELISA on coated recombinant mIL-13-Rα2, serially diluted purified ch08. As for the experimental part: (§1) The binding of hu07 and hu08 to mouse IL-13-Rα2 was evaluated by direct ELISA. The identity between human and mouse IL-13-Rα2 at the amino acid level is approximately 64%. Recombinant mIL-13-Rα2 or hIL-13-Rα2 (as positive control) was coated onto a 96-well plate. Purified chimeric ch07 and ch08 were serially diluted and added to the antigen coated plate. The bound antibodies were detected by HRP conjugated goat anti-human IgGFc specific secondary antibody.

In assay [3] the target is T1, recombinant human IL-13 receptor alpha …. The experiment in a line: competition ELISA on plate-coated recombinant hIL-13-Rα2; competitor: constant amount of biotin-ch08, detected with streptavidin-HRP. As for the experimental part:
(§2) A competition ELISA was performed to examine whether ch07 and ch08 have distinct binding epitopes. Prior to the competition ELISA experiment, ch07 and ch08 were biotinylated. The EC50 of the biotinylated ch07 (biotin-ch07) and ch08 (biotin-ch08) were determined by direct standard ELISA. For the competition ELISA, recombinant hIL-13-Rα2 was coated onto 96-well plates at 50 ul of 2 μg/mL in PBS overnight at 4° C. The plates were then blocked and washed following a standard ELISA protocol. 3-fold serially diluted ch07 and ch08 (2× final concentration) were mixed with a constant amount of biotin-ch07 (FIG. 2A) or biotin-ch08 (FIG. 2B), respectively and were added to the plate and incubated for 1 hour at room temperature. The amount of biotinylated chimeric antibody bound was detected by HRP conjugated streptavidin at 1:5000 for 1 hour. […] Similar results are obtained when the same set of antibodies were used to compete with biotin-ch08 (FIG. 2B).

For assay [4] the target is unchanged. The assay is described as follows: SPR Biacore, pH 7.4. As for the experimental part: To assess the binding kinetics of the ch07 and ch08 antibodies, SPR (Surface Plasmon Resonance) experiments were conducted on a Biacore® T100 or T200 instrument using a Biacore® human Fab Capture Kit (GE Healthcare). All data was analyzed using the Biacore® T100 evaluation software version 2.0 with a 1:1 Langmuir binding model.
Kₐ, Kd and KD are shown on Table 5. […] At pH6.0, ch07 and ch08 binding affinity to hIL-13-Rα2 are in the low nM range. Dissociation rates of ch08 and ch07 are very similar. Higher KDs at pH6.0 than pH7.4 are due to a slower association rate.
(In general: In SPR one partner is held on a chip, and binding of the other changes the refractive index at the surface.)

Assay [5] has the same target. The experiment in a line: competition ELISA on plate-coated recombinant hIL-13-Rα2; competitor: constant amount of biotin-ch07, detected with streptavidin-HRP. Here is the method:
as §2

The target is the same in assay [6]. The assay is described as follows: direct ELISA on rhIL-13Rα2 (given as ED50).
The target in assay [7] is T2, recombinant mouse IL-13-Rα2 (mIL-13-Rα2). The experiment in a line: direct ELISA on coated recombinant mIL-13-Rα2, serially diluted purified ch07. As for the experimental part: as §1
Assay [8] addresses T1, recombinant human IL-13 receptor alpha …. The assay is described as follows: direct ELISA on rhIL-13Rα2, purified protein (given as ED50).
For assay [9] the target is unchanged. The assay is described as follows: competition ELISA on plate (recombinant IL-13-Rα2), competitor biotinylated ch07.
The target is the same in assay [10]. The experiment in a line: competition ELISA on plate, competitor biotinylated ch07, purified protein.

B1: chimeric antibody ch08 (antibody, human IgG1, V domains shown)
VH: EVQLVESGGDLVRPGGSLQLSCAASGFTFSRNGMSWVRQTPDRRLEWVATVSSGGSYIYYADSVKGRFTISRDNARNTLYLQMSSLKSEDTAMYYCARQGTTALATRFFDVWGAGTTVTVSS
VL: DIVMTQSHKFISTSVGDRVSITCKASQDVGTAVAWYQQIPGQSPKLLIYSASYRSTGIPDRFTGSGSGTDFSFIISSVQAEDLALYYCQHHYSAPWTFGGGTTLDIK
notes: also called ch08Hc + Lc; chimeric antibody 08
With B1, the IC50 in [1] came to 1.98 nM. The binding result in assay [2] was “no binding”. The “IC50 (read off the curve)” value in assay [3] was around 6 nM.

B2: chimeric antibody ch07 (antibody, human IgG1, V domains shown)
VH: QVQLKESGPGLVAPSQSLSINCTVSGFSLTKYGVHWIRQSPGKGLEWLGVKWAGGSTDYNSALMSRLTISKDNNKSQVFLKMNSLQSDDSAMYYCARDHRDAMDYWGQGTSVTVSS
VL: QVVLTQSPAIMSASPGERVTMTCTASLSVSSTYLHWYHQKPGSSPKLWIYSTSNLASGVPARFSGSGSGTSYSLTISSMEAEDAATYYCHQYHRSPLTFGSGTKLELK
notes: also called chimeric antibody 07; biotin-ch07 (biotinylated form)
As for B2, the “fold slower dissociation than ch08” value in assay [4] was around 2 fold. Besides, the “IC50 (read off the curve)” value in [5] is around 2 nM. The EC50 in assay [6] came to 0.217 nM; in assay [8], 0.39 nM. Besides, in assay [7], the binding result is reported as “no binding”. Also, the IC50 in [9] and in [10] was 2.21 nM throughout.
